Columns and labels:
Experiment in all cases: bioluminescence (BRET) titration
[1] = test system: LUMID-1C (NL1C-thiazole orange conjugate) C166S;G182C; conditions: apparent, in base pairs; PBS pH 7.4, 0.1% (w/v) BSA, 5% DMSO, 1 nM sensor, 30 min at room temperature, then NanoGlo substrate 1:1000
[2] = test system: LUMID-2C double-lysine (NL2C-2K-thiazole orange); conditions: apparent, in base pairs; PBS pH 7.4, 0.1% (w/v) BSA, 5% DMSO, 1 nM sensor, 30 min at room temperature, then NanoGlo substrate 1:1000
[3] = test system: LUMID-2F (NL2F-thiazole orange); conditions: apparent, in base pairs; Hill n 0.65 per Fig 3 legend; PBS pH 7.4, 0.1% (w/v) BSA, 5% DMSO, 1 nM sensor, 30 min at room temperature, then NanoGlo substrate 1:1000
[4] = test system: LUMID-1F (NL1F-thiazole orange conjugate); conditions: apparent, in base pairs; PBS pH 7.4, 0.1% (w/v) BSA, 5% DMSO, 1 nM sensor, 30 min at room temperature, then NanoGlo substrate 1:1000
[5] = test system: LUMID-2C single-lysine (NL2C-1K-thiazole orange); conditions: apparent, in base pairs; PBS pH 7.4, 0.1% (w/v) BSA, 5% DMSO, 1 nM sensor, 30 min at room temperature, then NanoGlo substrate 1:1000
[6] = test system: LUMID-2C double-glycine (NL2C-2G-thiazole orange); conditions: apparent, in base pairs; PBS pH 7.4, 0.1% (w/v) BSA, 5% DMSO, 1 nM sensor, 30 min at room temperature, then NanoGlo substrate 1:1000
[7] = test system: LUMID-3C (NL3C-thiazole orange); conditions: apparent, in base pairs; Hill n not fixed to 1 per Methods; PBS pH 7.4, 0.1% (w/v) BSA, 5% DMSO, 1 nM sensor, 30 min at room temperature, then NanoGlo substrate 1:1000
[8] = test system: LUMID-2C triple-lysine (NL2C-3K-thiazole orange); conditions: apparent, in base pairs; PBS pH 7.4, 0.1% (w/v) BSA, 5% DMSO, 1 nM sensor, 30 min at room temperature, then NanoGlo substrate 1:1000

Sequence of LUMID-1C (NL1C-thiazole orange conjugate) C166S;G182C (chain, as listed by the source C166S G182C): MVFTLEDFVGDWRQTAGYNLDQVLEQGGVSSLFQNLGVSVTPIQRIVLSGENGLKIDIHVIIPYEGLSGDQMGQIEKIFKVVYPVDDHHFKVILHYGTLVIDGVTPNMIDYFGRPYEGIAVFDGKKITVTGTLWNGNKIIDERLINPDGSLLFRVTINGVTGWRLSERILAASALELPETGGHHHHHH

Which results are given for “sheared salmon sperm dsDNA (~2000 bp fragments)”?
Kd [1]: 3.1 mM; Kd [2]: 27 µM; Kd [3]: 43 µM; Kd [4]: 4.1 mM; Kd [5]: 142 µM; Kd [6]: 279 µM; Kd [7]: 2100 nM; Kd [8]: 21 µM
